T1: NURC1 1-160 (Arabidopsis thaliana, UniProt Q9LZ65 1-160)
T1 sequence: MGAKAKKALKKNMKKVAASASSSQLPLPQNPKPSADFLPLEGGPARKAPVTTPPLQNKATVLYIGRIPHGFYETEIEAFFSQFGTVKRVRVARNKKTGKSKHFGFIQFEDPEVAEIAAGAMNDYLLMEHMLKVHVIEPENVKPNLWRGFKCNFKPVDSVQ

T2: NURC1-FL (Arabidopsis thaliana, UniProt Q9LZ65 1-222)
T2 sequence: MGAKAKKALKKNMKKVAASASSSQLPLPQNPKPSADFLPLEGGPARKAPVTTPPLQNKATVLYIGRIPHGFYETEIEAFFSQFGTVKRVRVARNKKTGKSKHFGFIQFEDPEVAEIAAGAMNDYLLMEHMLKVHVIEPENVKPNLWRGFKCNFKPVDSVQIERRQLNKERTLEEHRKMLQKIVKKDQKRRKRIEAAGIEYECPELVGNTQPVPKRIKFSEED

B1: ITS2 1-79 (stem I and II) (structured_RNA)
RNA: GGAUCGUCGUCCCUCACCAUCCUUUGCUGAUGCGGGACGGAAGCUGGUCUCCCGUGUGUUACCGCACGCGUUGGCCUAAUU
B2: ITS2 82-162 (stem III) (structured_RNA)
RNA: GGAGCCAAGGACGCCUGGAGCGUACCGACAUGCGGUGGUGAACUUGAUCCAUUACAUUUUAUCGGUCGCUCUUGUCCGGAA

Columns and labels:
[1] = biological target: T1, NURC1 1-160; experiment: MST; details: MST: 10 nM labelled RNA, 20 mM Tris-HCl pH 8.0, 150 mM NaCl, 0.1 mg/ml BSA, 1 mM DTT, 0.1% Tween-20, room temperature, 5 min
[2] = biological target: T2, NURC1-FL; experiment: MST; details: MST: 10 nM labelled RNA, 20 mM Tris-HCl pH 8.0, 150 mM NaCl, 0.1 mg/ml BSA, 1 mM DTT, 0.1% Tween-20, room temperature, 5 min
[3] = tested on: NURC1 1-140 (Arabidopsis thaliana); experiment: MST; details: MST: 10 nM labelled RNA, 20 mM Tris-HCl pH 8.0, 150 mM NaCl, 0.1 mg/ml BSA, 1 mM DTT, 0.1% Tween-20, room temperature, 5 min
[4] = biological target: T1, NURC1 1-160; experiment: MST; Kd only in figure/Table S5; MST: 10 nM labelled RNA, 20 mM Tris-HCl pH 8.0, 150 mM NaCl, 0.1 mg/ml BSA, 1 mM DTT, 0.1% Tween-20, room temperature, 5 min; details: protein: recombinant; tags: 6xHis (pET-28a) removed with thrombin; label: Cy5-UTP incorporated (Cy5-UTP/UTP 1:15)
[5] = biological target: T2, NURC1-FL; experiment: as above; details: protein: recombinant; tags: N-terminal 6xHis (pET-28a, NdeI/XhoI) removed with thrombin; label: Cy5-UTP incorporated (Cy5-UTP/UTP 1:15)

Molecule	Kd [1]	Kd [2]	Kd [3]	binding result [4]	binding result [5]
ITS2 FL	116 nM	228 nM	938 nM		
B1				binds	binds
B2				binds	binds
